The values that follow come from patent US20210130452A1 (Merck KGaA, published 2021).

For test [1], the target named is T1, human IL-17A (human, UniProt Q16552 24-155, biotinylated with Sulfo-NHS-LC-Biotin in the AlphaScreen assays only).
T1 construct: also called hIL-17A; recombinant human IL-17A
In words: SPR Biacore, hIL-17A on chip; periplasmic extract (*); NB = no binding.
Protocol: (§1) Off-rates of the periplasmic extracts containing anti-IL-17 Nanobodies were measured by Surface Plasmon Resonance (SPR) using a Biacore T100 instrument. […] Periplasmic extracts containing IL-17 neutralizing Nanobodies were injected for 2 minutes at a flow rate of 45 μl/min to allow binding to chip-bound antigen. Next, binding buffer without periplasmic extracts was sent over the chip at the same flow rate to allow spontaneous dissociation of bound Nanobody. From the sensorgrams obtained for the different periplasmic extracts koff-values (k₄) were calculated.

In test [2] the target is T2, human IL-17F (human, UniProt Q96PD4 31-163).
T2 construct: made in Hek293 cells (GenBank AF384857); also called hIL-17F; hIL17F
T2 sequence: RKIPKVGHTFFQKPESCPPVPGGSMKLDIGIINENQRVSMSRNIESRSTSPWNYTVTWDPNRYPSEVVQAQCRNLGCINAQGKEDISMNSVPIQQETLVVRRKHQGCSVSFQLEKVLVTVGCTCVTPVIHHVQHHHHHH
The experiment in a line: AlphaScreen IL-17F-IL-17RC; vs IL17MS16A04.

Test [3] concerns the target T2, human IL-17F. The experiment in a line: SPR (Biacore) off-rate.
Test [4] has as its target T3, human IL-17A/F heterodimer (human, UniProt Q16552 24-155; Q96PD4 31-163, limits assumed).
T3 construct: bought, made in E. coli (R&D Systems 5194-IL/CF); also called hIL-17A/F; hIL17A/F
In words: SPR (Biacore) off-rate.
T3 sequence (Q16552 24-155 limits assumed, chain 1 of 2, one chain of several): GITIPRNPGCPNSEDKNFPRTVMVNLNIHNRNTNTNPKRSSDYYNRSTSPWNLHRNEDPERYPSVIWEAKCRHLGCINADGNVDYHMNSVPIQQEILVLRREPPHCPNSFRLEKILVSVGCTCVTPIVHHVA

The target of test [5] is T4, human IL-17F (human, UniProt Q96PD4 31-163, biotinylated with Sulfo-NHS-LC-Biotin in the AlphaScreen assays only).
T4 sequence: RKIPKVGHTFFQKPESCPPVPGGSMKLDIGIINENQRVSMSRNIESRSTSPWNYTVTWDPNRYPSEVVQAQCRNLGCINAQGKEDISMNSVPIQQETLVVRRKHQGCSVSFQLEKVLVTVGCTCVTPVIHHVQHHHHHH
The experiment in a line: cell-based or functional assay.

Test [6] has as its target T4, human IL-17F. In words: AlphaScreen competition, hIL-17F - IL-17RA-Fc.
Protocol: (§2) To this mixture, the IL-17RA or IL-17RC Fc-fusions, Acceptor beads and the streptavidin Donor beads were added and further incubated for 1 hour at RT.
The target of test [7] is T4, human IL-17F. The experiment in a line: AlphaScreen competition, hIL-17F - IL-17RC-Fc.
Protocol: as §2
In test [8] the target is T4, human IL-17F. In words: SPR Biacore, hIL-17F on chip; purified protein.
Protocol: as §1
Test [9] concerns the target T5, human IL-17A/F heterodimer (human, UniProt Q16552 24-155; Q96PD4 31-163, limits assumed, biotinylated with Sulfo-NHS-LC-Biotin in the AlphaScreen assays only).
T5 construct: also called hIL-17A/F
In words: AlphaScreen competition, hIL-17A/F - IL-17RC-Fc.
Target sequence in this assay (Q16552 24-155 limits assumed, chain 1 of 2, one chain of several): as the sequence (Q16552 24-155 limits assumed, chain 1 of 2, one chain of several) above
Protocol: as §2

For test [10], the target named is T5, human IL-17A/F heterodimer. The experiment in a line: SPR Biacore, hIL-17A/F on chip; purified protein.
Target sequence in this assay (Q16552 24-155 limits assumed, chain 1 of 2, one chain of several): as the sequence (Q16552 24-155 limits assumed, chain 1 of 2, one chain of several) above
Test [11] has as its target T5, human IL-17A/F heterodimer. In words: cell-based or functional assay.
Target sequence in this assay (Q16552 24-155 limits assumed, chain 1 of 2, one chain of several): as the sequence (Q16552 24-155 limits assumed, chain 1 of 2, one chain of several) above
For test [12], the target named is T5, human IL-17A/F heterodimer. The experiment in a line: AlphaScreen competition, hIL-17A/F - IL-17RA-Fc.
Target sequence in this assay (Q16552 24-155 limits assumed, one chain of several): as the sequence (Q16552 24-155 limits assumed, chain 1 of 2, one chain of several) above
Protocol: as §2
Test [13] concerns the target T6, human IL-17A (human, UniProt Q16552 24-155).
T6 construct: secreted form (GenBank U32659) expressed in Hek293 with C-terminal 6-His; also called hIL-17A; IL-17A-6HIS
In words: SPR.

Test [14] deals with T7, human IL-17A/F heterodimer (human, UniProt Q16552 24-155; Q96PD4 31-163, limits assumed).
T7 construct: produced in E. coli, bought from R&D Systems (Cat 5194-IL/CF); also called hIL-17A/F
In words: SPR.
T7 sequence (Q16552 24-155 limits assumed, chain 1 of 2, one chain of several): as the sequence (Q16552 24-155 limits assumed, chain 1 of 2, one chain of several) above

Test [15] deals with T6, human IL-17A. In words: AlphaScreen IL-17A-IL-17RA, average.

T1 sequence (Q16552 other isoform, or with tags, fused parts or gaps): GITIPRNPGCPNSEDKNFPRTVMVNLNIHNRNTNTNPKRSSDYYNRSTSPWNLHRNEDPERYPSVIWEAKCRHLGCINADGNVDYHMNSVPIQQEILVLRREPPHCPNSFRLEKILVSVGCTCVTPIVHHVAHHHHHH
T6 sequence (Q16552 other isoform, or with tags, fused parts or gaps): as above

B1: 07B09 (VHH)
VHH: EVQLVESGGGLVQAGGSLRLSCGASGGTFSSYATGWFRQAPGKEREFVAVLRWSDGHTAYADSVKGRFTISRDGAKNTMYLQMSSLKPEDTAIYYCTTATRPGEWDYWGQGTQVTVSS
notes: Class 3 Nanobody (anti-IL-17F); not shown: c-myc, His6 tag
Regarding B1, the binding result in test [1] is “no binding”.

B2: 24G10 (VHH)
VHH: EVQLVESGGGLVQAGGSLRLSCGAAGGTFSSYATGWFRQAPGKEREFVAVFRWSDSHTAYADSVKGRFTISRDGAKNTLYLQMSSLKPEDTAIYYCTTATRPGEWDYWGQGTQVTVSS
notes: as for B1
With B2, the binding result in [1] is listed as “no binding”.

B3: IL17MS3059 (VHH)
VHH: DVQLVESGGGLVQPGGSLRLSCAASGRTFSSYVVGWFRQAPGKEREFVGAISGSGESIYYAVSEKGRFTISRDNSKNTLYLQMNSLRPEDTAVYYCTADQEFGYLRFGRSEYWGQGTLVTVSS
notes: variant of IL17MS16A04; Kabat numbering
B3: the “IC50 fold difference vs WT” value in test [2] turned out to be 6.7 fold.

B4: IL17MS3055 (VHH)
VHH: EVQLVESGGGLVQPGGSLRLSCAASGRTFSSYVVGWFRQAPGKEREFIGAISGSGDSIYYAVSEKGRFTISRDNGKNTLYLQMNSLRAEDTAVYYCTADQEFGYLRFGRSEYWGQGTLVTVSS
As to B4, the koff came to 0.000493 s⁻¹ in test [3] and 0.00332 s⁻¹ in [4].

B5: IL17MS3054 (VHH)
VHH: EVQLVESGGGLVQPGGSLRLSCAASGRTFSSYVVGWFRQAPGKEREFIGAISGSGDSIYYAVSEKDRFTISRDNSKNTLYLQMSSLRPEDTAVYYCTADQEFGYLRFGRSEYWGQGTLVTVSS
notes: as for B3
On to B5, for which the values for the off-rate (koff) in test [3] and in [4] were 0.000459 s⁻¹ and 0.00308 s⁻¹, respectively.

B6: IL17MS3062 (VHH)
VHH: EVQLVESGGGLVQPGGSLRLSCAASGRTFSSYVVGWFRQAPGKEREFVGAISGSGESIYYAVSEKGRFTISRDNSKNTLYLQMNSLRPEDTAVYYCTADQEFGYLRFGRSEYWGQGTLVTVSS
notes: as for B3
Regarding B6, the “IC50 fold difference vs WT” value in [2] amounted to 7.4 fold.

B7: IL17MS3064 (VHH)
VHH: DVQLVESGGGLVQPGGSLRLSCAASGRTFSSYVVGWFRQAPGKEREFVGAISGSGDTIYYAVSEKGRFTISRDNSKNTLYLQMNSLRPEDTAVYYCTADQEFGYLRFGRSEYWGQGTLVTVSS
notes: as for B3
On to B7, for which the “IC50 fold difference vs WT” value in [2] is 30.3 fold.

B8: IL17MS3065 (VHH)
VHH: DVQLVESGGGLVQPGGSLRLSCAASGRTFSSYVVGWFRQAPGKEREFIGAISGSGDTIYYAVSEKGRFTISRDNSKNTLYLQMNSLRPEDTAVYYCTADQEFGYLRFGRSEYWGQGTLVTVSS
notes: as for B3
For the molecule B8, the “IC50 fold difference vs WT” value in [2] is 12.7 fold.

B9: 08A08 (VHH)
VHH: EVQLVESGGGLVQAGGSLRLSCAASGRTFRPYRMGWFRRAPGKAREFVTLISWSSGRTSYADSVKGRFTISRDSAKNAVYLQMDNLKPEDTAVYFCAVDLSGDAVYDSWGQGTQVTVSS
notes: as for B1
For B9, the “IL-17F-induced IL-6 production in HT-1080 cells, Emax” value in test [5] was found to be 62%. Moreover, the “IL-17F-induced IL-6 production in HT-1080 cells, IC50” value in [5] was 206 nM. The values for the IC50 in test [6], in test [7] and in [9] were 3.84 nM, 1.3 nM and 19.7 nM, respectively. Also, the koff in test [8] came to 0.048 s⁻¹; in test [10] it was 0.0079 s⁻¹. Moreover, the binding result in test [1] is recorded as “no binding”.

B10: 12A09 (VHH)
VHH: EVQLVESGGGLVQPGGSLRLSCAASGFTFSSYRMAWVRQAPGKGLEWVSSTSTGGEMTNYADSVKGRFTISRDNAKNTLHLQMNSLKPEDTALYYCAAGTSAGHWSTGGQGTQVTVSS
notes: as for B1
Consider B10, for which the “IL-17F-induced IL-6 production in HT-1080 cells, Emax” value in [5] was found to be 91%. Also, in test [5], the “IL-17F-induced IL-6 production in HT-1080 cells, IC50” value was 105 nM. Further, the “IL-17A/F-induced IL-6 production in HT-1080 cells, Emax” value in [11] is 41.5%. The “IL-17A/F-induced IL-6 production in HT-1080 cells, IC50” value in [11] was 100 nM. In addition, the 50% inhibitory concentration (IC50) in test [6] was 1.84 nM; in test [7], 0.612 nM; in test [12], over 250 nM; in [9], 33.2 nM. The off-rate (koff) in [10] came out at 0.017 s⁻¹. Besides, in test [1], the binding result is reported as “no binding”.

B11: IL17MS3010 (VHH, name in Kabat numbering)
VHH: EVQLVESGGGLVQPGGSQRLSCTASGTIVNIHVMGWYRQAPGKQRELVALIFSGGSADYADSVKGRFTISRDNSKNTVYLQMNSLRAEDTAVYYCAAEIGYYSGGTYYSSEAHWGQGTLVTVSS
notes: also called IL17MS3010 basic
As for B11, the koff was 0.00013 s⁻¹ in test [13] and 0.000217 s⁻¹ in [14]. Also, the IC50 in [15] stood at 0.184 nM.

B12: IL17MS3011 (VHH, name in Kabat numbering)
VHH: EVQLVESGGGLVQPGGSLRLSCTASGTIVNIHVMGWYRQAPGKQRELVALIFSGGSADYADSVKGRFTISRDNSKNTVYLQMNSLRAEDTAVYYCAAEIGYYSGGTYYSSEAHWGQGTLVTVSS
notes: basic + Q18L; Kabat positions
Consider B12, for which the koff came to 0.000132 s⁻¹ in [13] and 0.000223 s⁻¹ in test [14]. In test [15], this molecule yielded an IC50 of 0.139 nM.

B13: IL17MS3017 (VHH, name in Kabat numbering)
VHH: EVQLVESGGGLVQPGGSLRLSCAASGTIVNIHVMGWYRQAPGKQRELVALIFSGGSADYADSVKGRFTISRDNSKNTVYLQMNSLRPEDTAVYYCAAEIGYYSGGTYYSSEAHWGQGTLVTVSS
notes: basic + Q18L, T23A, A84P; Kabat positions
Take B13: the off-rate constant (koff) in [13] turned out to be 0.000144 s⁻¹; in test [14], 0.000242 s⁻¹. Moreover, the IC50 in [15] came out at 0.163 nM.

B14: IL17MS3013 (VHH, name in Kabat numbering)
VHH: EVQLVESGGGLVQPGGSQRLSCTASGTIVNIHVMGWYRQAPGKQRELVALIFSGGSADYADSVKGRFTISRDNSKNTVYLQMNSLRPEDTAVYYCAAEIGYYSGGTYYSSEAHWGQGTLVTVSS
notes: basic + A84P; Kabat positions
Take B14: the koff in test [13] turned out to be 0.000116 s⁻¹; in [14] it was 0.000185 s⁻¹. The molecule further displayed an IC50 in test [15] of 0.081 nM.

B15: IL17MS3012 (VHH, name in Kabat numbering)
VHH: EVQLVESGGGLVQPGGSQRLSCAASGTIVNIHVMGWYRQAPGKQRELVALIFSGGSADYADSVKGRFTISRDNSKNTVYLQMNSLRAEDTAVYYCAAEIGYYSGGTYYSSEAHWGQGTLVTVSS
notes: basic + T23A; Kabat positions
For B15, the off-rate constant (koff) in test [13] came to 0.000137 s⁻¹; in [14] it was 0.000228 s⁻¹. This molecule had a concentration for half-maximal inhibition (IC50) in test [15] of 0.101 nM.

B16: 08B07 (VHH)
VHH: EVQLVESGGGLVQPGGSLRLSCAASGRDFRVKNVGWIRQAPGKQRELVATITVGGSTNYADSAKGRFTISRDNAKNTVYLQMSSLKPEDTAVYYCNAVATVTDYTGTYSDGFWGQGTQVTVSS
notes: as for B1
With B16, in test [1], the binding result is on record as “no binding”.

B17: 24B08 (VHH)
VHH: EVQLVESGGGLVQAGGSLRLSCAVSGGTFSTYKMGWFRQAPGKEREIVARISTNGPTAYAEFVKGRFTVSRENTKNTVYLQMNSLNIEDTAVYYCAAGYDSLFAGYDYWGQGTQVTVSS
notes: as for B1
Turning to B17, the binding result in test [1] is listed as “no binding”.

B18: 07B11 (VHH)
VHH: EVQLVESGGGLVQAGGSLRLSCVASGRAFSSYVMGWFRQAPGMEREFVALIRWSDGITGYVDSVKGRFTISRDNAKNTVYLQMNSLKPEDTAVYYCAAAVRPGDYDYWGQGTQVTVSS
notes: as for B1
B18: the binding result in test [1] was “no binding”.
